Reference: patent US10017546B2 (KOREA ADVANCED INSTITUTE OF SCIENCE AND TECHNOLOGY, priority 2015, dated 2018)
Numbering of substitutions follows the chain as printed. Names may count otherwise. Where two headings read alike, the source gives them in different places.

B1: Rhizavidin (RA): natural dimeric avidin protein from Rhizobium etli; core rhizavidin SEQ ID NO: 1 (protein)
chain: FDASNFKDFSSIASASSSWQNQSGSTMIIQVDSFGNVSGQYVNRAQGTGCQNSPYPLTGRVNGTFIAFSVGWNNSTENCNSATGWTGYAQVNGNNTEIVTSWNLAYEGGSGPAIEQGQDTFQYVPTTE
modifications: amino acid sequence of truncated Rhizavidin
B2: mRA: monomeric rhizavidin with six interfacial mutations (SEQ ID NO: 2) (protein)
chain: B1 chain with A67D, G71K, A82N, G84Q, S101R, A105K
modifications: amino acid sequence of mRA
B3: mRAWW: mRA with two tryptophan mutations (E115W and S23W) (protein)
chain: B1 chain with S23W, A67D, G71K, A82N, G84Q, S101R, A105K, E115W
B4: Monodin (MA): monomeric avidin-like protein of SEQ ID NO: 3; mRA further carrying S23H, Q46E and E115W (protein)
chain: B1 chain with S23H, Q46E, A67D, G71K, A82N, G84Q, S101R, A105K, E115W
modifications: amino acid sequence of MA
notes: mRA further carrying S23H, Q46E and E115W

Assays:
biotin-GFP [1] = target: T1, biotin-GFP (Aequorea victoria, UniProt P42212, A206V/E111V/F223Y/F64L/F99S/I128T/I167V/I171V/K158E/K166T/K26E/L221H/M153T/N105K/N149D/N164E/Q80R/S205T/S30R/S65T/T225N/V163A/Y145F/Y39I); details: for percentage of dissociated biotin conjugate after 10 h incubation with excess biotin / Dissociation rate: Biotin-GFP; for percentage of dissociated biotin conjugate after 10 h incubation with excess biotin: 23° C.; for Dissociation rate: excess biotin; for dissociation of biotin-GFP from mRA mutants (in words): mutants at E115, Q46, S23, biotin addition, 45° C. for 30 min
Description: After incubation at the indicated temperature (23° C., 37° C., or 45° C.) for varying time points (between 0 to 10 h), protein-conjugate mixtures were loaded onto a 15% native polyacrylamide gel. […] Data as ln(fraction bound) versus time and fitting the data to a straight line by linear regression.

biotin-GFP [2] = target: T1, biotin-GFP; details: 15% native-PAGE
From the text: To monomerize rhizavidin, the present inventors introduced various numbers (one, six, and ten) of charged and hydrophilic amino acids, which have long side chains, at the dimeric interface (FIG. 1(a) and FIG. 4).

biotin-DNA = test: Gel-based off-rate measurement against biotin-DNA-fluorescein; assay type: binding; details: for percentage of dissociated biotin conjugate after 10 h incubation with excess biotin: 23° C.
biotin-AP = test: Gel-based off-rate measurement against biotin-AP peptide; assay type: binding; details: 37° C., excess biotin
biotin-protein G = test: Gel-based off-rate measurement against biotin-protein G; assay type: binding; details: 37° C., excess biotin
[3] = Stability / aggregation of monomerized proteins in buffered solutions; assay type: physicochemical; details: up to 1 mg/ml where stated
HeLa cells = test: Clustering and internalization of biotinylated cell-surface proteins; assay type: cell-based; details: Cy5-labeled avidin proteins, 37° C.
Description: Following biotinylation, the cells were washed twice with cold PBS-CM, treated with 100 mM glycine in PBS-CM for blocking, and washed again twice with cold PBS. […] Unbound avidin proteins were removed, and media was replaced with pre-warmed DMEM (37° C.). Cells were incubated for 5, 10, or 30 m at 37° C. Cells were washed, and fixed with 4% formaldehyde in PBS for confocal imaging (ZEISS, LSM510 META). To visualize endosome or lysozome-specific proteins, cells were fixed, permeabilized, and incubated with a primary antibody: anti-Rab11 (a GTPase of recycling endosome, Abcham) or anti-LAM P1 (Lysosomal-associated membrane protein 1, Abcham). Afterward, cells were incubated with a fluorescent secondary antibody (goat anti-rabbit 555, Abcham), and images were acquired with a confocal microscopy (ZEISS, LSM510 META).

[4] = immobilized biotin or biotin-GFP, avidin proteins 5 μM
Description: Surface Plasmon Resonance (SPR) Analysis
SPR tests were performed in a Biacore 3000 instrument using dextran CM5 gold chips (GE Healthcare) and a PBS buffer as a running solution.

| Molecule | percentage of dissociated biotin conjugate after 10 h incubation with excess biotin (biotin-GFP [1]) [% for 10 h*] | Dissociation rate (biotin-GFP [1]; 37° C.) | Dissociation rate (biotin-GFP [1]; 45° C.) | complexes formed with biotin-GFP (biotin-GFP [2]) | percentage of dissociated biotin conjugate after 10 h incubation with excess biotin (biotin-DNA) [% for 10 h*] | Dissociation rate (biotin-AP) | Dissociation rate (biotin-protein G) | biotin-GFP dissociated after biotin addition (biotin-GFP [1]; excess free biotin, 37° C. for 30 min, native-PAGE) | stability / aggregation in buffered solutions [3] | dissociation of biotin-GFP from mRA mutants (in words) (biotin-GFP [1]) | percentage of dissociated biotin conjugate after 10 h incubation with excess biotin (biotin-GFP [1]; listed as MA) | percentage of dissociated biotin conjugate after 10 h incubation with excess biotin (biotin-DNA; listed as monodin) [%] | Dissociation rate (biotin-DNA; 37° C., excess biotin) | incubation time after which avidin protein was internalized (HeLa cells) [min] | dissociation from surface-bound biotin conjugates by SPR [4] |
| --- | --- | --- | --- | --- | --- | --- | --- | --- | --- | --- | --- | --- | --- | --- | --- |
| B1 | 18 ± 3.0 | 5.0 ± 0.1 × 10^−5 s^−1 | 6.0 ± 0.6 × 10^−5 s^−1 | two separated complexes | 48 ± 6.1 | 4.9 ± 0.7 × 10^−5 s^−1 | 3.2 ± 0.8 × 10^−5 s^−1 |  |  |  |  |  |  |  |  |
| B2 |  |  |  |  |  |  |  | Over 40% | stable without any aggregation |  |  |  |  |  |  |
| B3 |  |  |  |  |  |  |  |  | highly prone to aggregation | the least dissociation of biotin-GFP |  |  |  |  |  |
| B4 | 6.7 ± 1.1 | 2.3±0.1×10^−5 s^−1 | 6.4±0.2×10^−5 s^−1 |  | 22 ± 6.0 | 5.1 ± 0.7 × 10^−5 s^−1 | 4.6 ± 1.5 × 10^−5 s^−1 |  |  | highly slowed off-rate | less than 7% | 22 | 2.7±0.3×10^−5 s^−1 | 30 | not observed |
